T1: Human Type 1 mutCALR (human)
T1 chain: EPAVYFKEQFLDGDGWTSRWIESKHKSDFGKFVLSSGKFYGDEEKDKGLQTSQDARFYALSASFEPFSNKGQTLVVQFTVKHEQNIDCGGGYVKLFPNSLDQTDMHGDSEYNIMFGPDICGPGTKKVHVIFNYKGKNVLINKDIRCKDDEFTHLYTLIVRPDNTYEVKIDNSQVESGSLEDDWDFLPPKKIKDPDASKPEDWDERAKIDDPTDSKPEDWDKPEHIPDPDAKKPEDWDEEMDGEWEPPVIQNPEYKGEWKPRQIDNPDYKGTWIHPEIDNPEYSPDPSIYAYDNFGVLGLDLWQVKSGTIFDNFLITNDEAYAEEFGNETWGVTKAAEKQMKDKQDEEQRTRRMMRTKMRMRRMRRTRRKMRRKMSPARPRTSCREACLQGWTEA

T2: human Type 1 mutCALR (52 bp deletion) (human)
T2 construct: also called human mutCALR Type 1; mutant CALR
T2 chain: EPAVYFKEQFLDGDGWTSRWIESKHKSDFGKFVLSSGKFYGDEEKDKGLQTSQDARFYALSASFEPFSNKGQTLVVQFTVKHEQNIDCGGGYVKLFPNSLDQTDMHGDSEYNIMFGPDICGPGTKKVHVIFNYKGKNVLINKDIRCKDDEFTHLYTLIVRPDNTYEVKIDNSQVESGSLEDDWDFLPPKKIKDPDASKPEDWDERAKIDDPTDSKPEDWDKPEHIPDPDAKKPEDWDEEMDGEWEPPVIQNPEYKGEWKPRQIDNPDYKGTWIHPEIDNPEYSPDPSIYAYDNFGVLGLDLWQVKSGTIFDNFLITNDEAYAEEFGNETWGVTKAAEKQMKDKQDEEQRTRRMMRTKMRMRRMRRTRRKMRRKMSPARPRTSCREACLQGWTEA


What was measured:
Human Type 1 mutCALR [1] = molecular target: T1, Human Type 1 mutCALR; assay: cell-based or functional assay
Human Type 1 mutCALR [2] = molecular target: T1, Human Type 1 mutCALR; assay: cell-based or functional assay
Human Type 1 mutCALR [3] = molecular target: T1, Human Type 1 mutCALR; assay: cell-based or functional assay
[4] = molecular target: T3, recombinant Flag tag_GFP_tev_hmutCALR Type 1 (human); assay: HTRF competition: preformed complex of 5 nM Flag-GFP-mutCALR Type 1 and 80 nM His-MPL, anti-FLAG-Europium / anti-6xHis-APC, 90 min reading; blocked ligand: His-MPL
T3 construct: also called FLAG-GFP-tev-mutCALR
Description: HTRF detection solution (2 nM anti-FLAG-Europium, and 100 nM anti-6×His-SureLight® APC) was then added and the plate was read on BMG PHERAstar FSX using kinetic HTRF protocol, obtaining readings every 15 minutes for 120 minutes total. […] Percent-of-control values were obtained by dividing the background-subtracted HTRF Ratios for each test well by the buffer control well in the same plate row.

MBP protein = MBP protein (UniProt P0AEX9 27-392 = MBP); assay: SPR (Biacore 8K), antibody captured on anti-human IgG (Fc), MBP injected
[5] = molecular target: T2, human Type 1 mutCALR (52 bp deletion); assay: flow cytometry on BaF3 cells stably expressing human MPL and human mutCALR Type 1, goat anti-human R-PE secondary, GMFI
Description: Approximately 200,000 cells/well were added to 96-well plates and stained with the indicated concentration of antibodies for 30 minutes on ice. Cells were then washed and stained with goat anti-human secondary conjugated to R-phycoerythrin (R-PE) (Jackson Immuno Research Laboratories) for 30 minutes on ice. The cells were then washed again and analyzed by flow cytometry.

Row | Binder | IC50 of inhibition of cell proliferation (BaF3 cells expressing MPL/mutCALR Type 1) (Human Type 1 mutCALR [2]) | IC50 of inhibition of cell proliferation (Ba/F3 cells with MPL and mutCALR Type 1) (Human Type 1 mutCALR [3]) | other results
1 | anti-mutCALR antibody clone 36 (antibody, human IgG1, lambda, V domains shown) VH: QVQLVQSGAEVKKPGATVKISCKVSGYSFTDYFIHWVQQAPGKGLAWVGLVDPEDGETIYAEKFQGRVTITADTSTDTAYMELSSLRSEDTAVYYCATPGGILTDPDAFDIWGQGTMVTVSS VL: QSALTQPRSVSGSPGQSVTISCAGTGSDVGGYNYVSWYQHHPGKAPKLMIYDVNKRPSGVPDRFSGSKSGNTASLTISGLQAEDEADYYCSSYTSSSTFYVFGTGTKVTVLG | 0.98 µg/mL | 0.0905 µg/mL | Log IC50 of inhibition of cell proliferation, antibody + ruxolitinib (Ba/F3-TPOR/mutCALR type 1 cells); extrapolated from fitted curve (Human Type 1 mutCALR [1]): -3.88 Log IC50 (µg/mL)
2 | anti-mutCALR antibody clone 40 (antibody, human IgG1, lambda, V domains shown) VH: EVQLVQSGAEVKKPGASVKVSCKVSGYTLTESSMHWVRQAPGKGLEWMGLVDPEDGETIYAQKFQGRVTMTEDTSTDTAYMELSSLRSEDTAVYYCAREEWSGDGDDAFDIWGQGTMVTVSS VL: QSVLTQPPSVSAAPGQKVTISCSGSSSNIGSYSVSWYQQLPGTAPKLLIYDNNKRPSGIPDRFSGSNSGTSATLGITGLQTGDEADYYCGTWDSSLSAWVFGGGTKLTVLG |  | 0.0384 µg/mL | Log IC50 of inhibition of cell proliferation, antibody + ruxolitinib (Ba/F3-TPOR/mutCALR type 1 cells); extrapolated from fitted curve (Human Type 1 mutCALR [1]): -1.59 Log IC50 (µg/mL)
3 | anti-mutCALR antibody clone 52 (antibody, human IgG1, kappa, V domains shown) VH: EVQLVQSGAEVKKPGASVKVSCKVSGYTLTELSMHWVRQAPGKGLEWMGLVDPEDGETIYAEKFQGRVTITADTSTDTAYMELSSPRSEDTAVYYCATTIGDDYFDYWGQGTLVTVSS VL: not shown |  | 0.0337 µg/mL | Log IC50 of inhibition of cell proliferation, antibody + ruxolitinib (Ba/F3-TPOR/mutCALR type 1 cells) (Human Type 1 mutCALR [1]): -0.709 Log IC50 (µg/mL)
4 | anti-mutCALR antibody clone 53 (antibody, human IgG1, lambda, V domains shown) VH: QVQLVQSGAEVKKPGASVKVSCKVSGYTLTELSMHWVRQAPGKGLEWMGGFDPEDGETIYAQKFQGRVTMTEDTSTDTAYMELSSLRSEDTAVYYCATDIQGLAEFDYWGQGTLVTVSS VL: QSALTQPRSVSGSPGQSVTISCTGTNTDVGAYIDVSWYQQHPGKAPKLIIYDVSKWPSGVPDRFSGSKSGNTASLTISGLQAEDEADYYCCSYAGNHSFSFGGGTKVTVLG | 9.5 µg/mL | 0.399 µg/mL | Log IC50 of inhibition of cell proliferation, antibody + ruxolitinib (Ba/F3-TPOR/mutCALR type 1 cells) (Human Type 1 mutCALR [1]): -0.424 Log IC50 (µg/mL); Log IC50 of inhibition of cell proliferation, antibody alone (Ba/F3-TPOR/mutCALR type 1 cells) (Human Type 1 mutCALR [1]): -0.173 Log IC50 (µg/mL)
5 | anti-mutCALR antibody clone 35 (antibody, human IgG1, lambda, V domains shown) VH: QVQLVQSGAEVKKPGATVKISCKVSGYSFTDYFIHWVQQAPGKGLAWVGLVDPEDGETIYAERFQGRVTITADTSTDTAYMELSSLRSEDTAVYYCATPGGILTDPDAFDIWGQGTMVTVSS VL: QSALTQPASVSGSPGQSITISCTGTSSDVGGYNYVSWYQQHPGKAPKLMIYEVSNRPSGVSNRFSGSKSGNTASLTISGLQAEDEADYYCSSYTSSSTPYVFGTGTKVTVLG | 2.18 µg/mL | 0.088 µg/mL | 
6 | anti-mutCALR antibody clone 41 (antibody, human IgG1, lambda, V domains shown) VH: EVQLVQSGAEVKKPGASVKVSCKVSGYTLTELSMHWVRQAPGKGLEWMGLVDPEDGETIYAQKFQGRVTMTEDTSTDTAYMELSSLRSEDTAVYYCAREEWSGDGDDAFDIWGQGTMVTVSS VL: QSVLTQPPSVSAAPGQKVTISCSGSSSNIGSYSVSWYQQLPGTAPKLLIYDNNKRPSGIPDRFSGSNSGTSATLGITGLQTGDEADYYCGTWDSSLSAWVFGGGTKLTVLG | 3.98 µg/mL | 0.342 µg/mL | 
7 | anti-mutCALR antibody clone 37 (antibody, human IgG1, lambda, V domains shown) VH: QVQLVQSGAEVKKPGATVKISCKVSGYSFTDYFIHWVQQAPGKGLAWVGLVDPEDGETIYAEKFQGRVTITADTSTDTAYMELSSLRSEDTAVYYCATPGGILTDPDAFDIWGQGTMVTVSS VL: QSALTQPASVSGSPGQSITISCTGTSSDVGGYNYVSWYQQHPGKAPKLMIYDVSNRPSGVSNRFSGSKSGNTASLTISGLQAEDEADYYCSSYTSSSTFYVFGTGTKVTVLG | 0.201 µg/mL |  | 
8 | anti-mutCALR antibody clone 32 (antibody, human IgG1, lambda, V domains shown, also called anti-mutCALR antibody 32) VH: QVQLVQSGAEVKKPGATVKISCKVSGYSFTDYFIHWVQQAPGKGLAWVGLVDPEDGETIYAEKFQGRVTITADTSTDTAYMELSSLRSEDTAVYYCATPGGILTDPDAFDIWGQGTMVTVSS VL: QSALTQPASVSGSPGQSITISCTGTSSDVGGYNYVSWYQQHPGKAPKLMIYEVSNRPSGVSNRFSGSKSGNTASLTISGLQAEDEADYYCSSYTSSSTPYVFGTGTKVTVLG |  |  | binding result [4]: binds; binding result (MBP protein): no binding (tested: 250 nM)
9 | AB2: anti-mutCALR antibody including VH and VL regions of antibody B3 from WO2020175689 fused to human constant regions (antibody, human IgG1, kappa, V domains shown) VH: QVQLQQSGAELVKPGSSVKISCKASGYTFTRNFIHWIKQQPGNGLEWIGWIFPGDGDTEYNQKFNGKATLTADKSSSTAYMQLSSLTSEDSAVYFCARGNYNYEYFDYWGQGVMVTVSS VL: DIQMTQSPASLSASLGETVSIECLASEDIYSYLAWYQQKPGKSPQLLIFAANRLQDGVPSRFSGSGSGTQFSLKISGMQPEDEGDYFCLQGSKFPYTFGPGTKLELNR |  |  | binding result [5]: binds
10 | AB3: anti-mutCALR antibody including the BJ095 VH region and the BJ097 VL region from WO2019178362 fused to human constant regions (antibody, human IgG1, kappa, V domains shown) VH: QVQLVQSGAEVKKPGASVKVSCKASGYSFTGYYIHWVRQAPGQGLEWIGYISAYNGASSYNQKFKGRATFTVDTSISTAYMELSRLRSDDTAVYYCASSMDYWGQGTLVTVSS VL: DVVMTQSPLSLPVTLGQPASISCKSSQSLLDSDGKTYLNWLQQRPGQSPKRLIYLVSKLDSGVPDRFSGSGSGTDFTLKISRVEAEDVGVYHCWQGTHFPYTFGQGTKLIEKR |  |  | binding result [5]: binds

Reference: patent US20230272055A1 (Incyte, published 2023)
